The record followed here is article PMC7351741, “Structural basis of seamless excision and specific targeting by piggyBac transposase”.

The stoichiometry N is a count of units in the complex or per binding partner.

In data set [1] the target is piggyBac transposase (PB), full-length, Trichoplusia ni (Trichoplusia ni). Briefly: SEC-MALS; purified PB at 4 and 2 mg/ml, Superdex 200 Increase 10/300, 20 mM HEPES pH 7.5, 100 mM NaCl, 1 mM TCEP; no DNA.
For data set [2], the target named is T1, piggyBac transposase (PB) (Trichoplusia ni, UniProt Q283G1 1-594). Briefly: cryo-EM; 5 mM Ca2+; Zn2+ in CRD; SNHP: 50 mM Tris-Cl pH 8.0, 100 mM NaCl, 5 mM CaCl2, 1 mM TCEP, mixed 1 h at 25 C; STC: 50 mM Tris-Cl pH 8.0, 500 mM NaCl dialyzed to 200 mM NaCl, 10 mM CaCl2. Particulars: protein: recombinant; tags: N-terminal MBP tag removed by TEV; chain copies: 2; hairpin, 35 bp stem, TTAA loop; 2 copies per PB dimer.
T1 sequence (Q283G1 entry or part of it): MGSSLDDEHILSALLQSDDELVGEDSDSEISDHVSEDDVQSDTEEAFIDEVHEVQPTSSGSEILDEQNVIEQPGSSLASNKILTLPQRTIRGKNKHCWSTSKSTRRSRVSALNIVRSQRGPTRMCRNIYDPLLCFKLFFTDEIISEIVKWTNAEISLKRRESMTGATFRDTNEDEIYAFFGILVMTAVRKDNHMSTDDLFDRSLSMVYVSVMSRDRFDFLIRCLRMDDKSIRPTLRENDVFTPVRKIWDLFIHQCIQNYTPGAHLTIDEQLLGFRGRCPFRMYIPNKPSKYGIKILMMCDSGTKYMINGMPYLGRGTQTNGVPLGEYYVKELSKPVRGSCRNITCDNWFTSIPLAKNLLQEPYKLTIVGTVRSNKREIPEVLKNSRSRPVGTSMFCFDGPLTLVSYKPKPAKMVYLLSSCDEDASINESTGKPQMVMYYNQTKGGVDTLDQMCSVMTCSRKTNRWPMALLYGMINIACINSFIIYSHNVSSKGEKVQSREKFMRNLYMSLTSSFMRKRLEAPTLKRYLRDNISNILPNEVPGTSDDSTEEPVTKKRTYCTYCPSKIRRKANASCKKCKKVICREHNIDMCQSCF

For data set [3], the target named is T1, piggyBac transposase (PB). Briefly: cryo-EM; 10 mM Ca2+; Zn2+ in CRD; SNHP: 50 mM Tris-Cl pH 8.0, 100 mM NaCl, 5 mM CaCl2, 1 mM TCEP, mixed 1 h at 25 C; STC: 50 mM Tris-Cl pH 8.0, 500 mM NaCl dialyzed to 200 mM NaCl, 10 mM CaCl2. Particulars: protein: recombinant; tags: N-terminal MBP tag removed by TEV; chain copies: 2; four annealed oligos, 2 copies of each; S4 pairs with S5+S6 (break between S5 and S6), 5' CCGG flap on S4; S7 pairs with 3' 11 nt of S6; central target TTAA unpaired in the complex.

“piggyBac transposase (PB), full-length, Trichoplusia ni (enzyme)”: the stoichiometry N in data set [1] came to 2.

B1: LE35hrpn (SNHP LE hairpin DNA) (structured_DNA)
DNA: CATGCGTCAATTTTACGCAGACTATCTTTCTAGGGTTAACCCTAGAAAGATAGTCTGCGTAAAATTGACGCATG
Take B1: in data set [2], the binding result is “binds”.

B2: LE STC DNA (mixed)
DNA 1: CCGGCCCTAGAAAGATAGTCTGCGTAAAATTGACGCATGCA
DNA 2: TGCATGCGTCAATTTTACGC
DNA 3: AGACTATCTTTCTAGGGTTAAGACTGTGCCGC
DNA 4: GCGGCACAGTC
Turning to B2, in data set [3], the binding result is listed as “binds”.
